Data published in US20230134571A1 (INTERNATIONAL AIDS VACCINE INITIATIVE, published 2023).

Legend:
Assay in all cases: cell-based or functional assay
[1] = target: HIV Env, isolate SC05_8C11_2344 (HIV)
[2] = target: HIV Env, isolate 6952.v1.c20 (HIV)
[3] = target: HIV Env, isolate 62357_14_D3_4589 (HIV)
[4] = target: HIV Env, isolate CNE21 (HIV)
[5] = target: HIV Env, isolate HIV-001428-2.42 (HIV)
[6] = target: HIV Env, isolate Ce703010054_2A2 (HIV)
[7] = target: HIV Env, isolate 1394C9G1(Rev-) (HIV)
[8] = target: HIV Env, isolate 3016.v5.c45 (HIV)
[9] = target: HIV Env, isolate 20417927.07 (HIV)
[10] = target: HIV Env, isolate 7060101641A7(Rev-) (HIV)
[11] = target: HIV Env, isolate CAP174.1.06_F3_1B (HIV)
[12] = target: HIV Env, isolate CT184_D3.15 (HIV)
[13] = target: HIV Env, isolate 6980.v0.c31 (HIV)
[14] = target: HIV Env, isolate CA146_H3_3 (HIV)
[15] = target: HIV Env, isolate SO607_B6.9 (HIV)
[16] = target: HIV Env, isolate CAP330.2.00_F2.41 (HIV)
[17] = target: HIV Env, isolate 21283649 (HIV)
[18] = target: HIV Env, isolate 722_G4_16 (HIV)
[19] = target: HIV Env, isolate CeCAP177_1A3 (HIV)
[20] = target: HIV Env, isolate ZM233M.PB6 (HIV)
[21] = target: HIV Env, isolate CeCAP188_1_D1_14(Rev-) (HIV)
[22] = target: HIV Env, isolate CT140_140_B6 (HIV)
[23] = target: HIV Env, isolate ZM215F.PB8 (HIV)
[24] = target: HIV Env, isolate TRP363.2.00_10_3 (HIV)
[25] = target: HIV Env, isolate 704010042 (HIV)
[26] = target: HIV Env, isolate 20965238 (HIV)
[27] = target: HIV Env, isolate SO032_A2.8-1 (HIV)
[28] = target: HIV Env, isolate 2768732_C5_16 (HIV)

B1: ePGDM9 (antibody, V domains shown)
VH: QAQLVQSGPEVRKPGTSVKVSCKNPGNTLTTYDLHWVRQVPGQGLQWMGWISHEGDKKVIVERFKAKVTIDWDRSTNTAYLQLSGLTSEDTAVYYCAKGSKHRLRDYALYDEDGALNWAVDVDYLANLEFWGQGTAVTVSS
VL: DIVLTQSPLSLSVTPGESASISCKSSQSLIHGDRNNYLAWYVQKPGRSPQLLIDLASERASGVPDRFSGSGSRKDFTLKISRVETEDVGTYYCMQGRESPWTFGQGTKVDIK
- IC80 (µg/ml) with constrains [1]: 4.25 µg/mL
- IC80 (µg/ml) with constrains [2]: 0.21 µg/mL
- IC80 (µg/ml) with constrains [3]: 38 µg/mL
- IC80 (µg/ml) with constrains [4]: 0.007 µg/mL
- IC80 (µg/ml) with constrains [5]: 0.008 µg/mL
- IC80 (µg/ml) with constrains [6]: 0.032 µg/mL
- IC80 (µg/ml) with constrains [7]: 0.005 µg/mL
- IC80 (µg/ml) with constrains [8]: > 100 µg/mL
- IC50 [9]: 0.03 µg/mL
- IC80 [9]: 0.679 µg/mL
- IC50 [10]: 0.002 µg/mL
- IC80 [10]: 0.013 µg/mL
- IC50 [11]: 12.6 µg/mL
- IC80 [11]: > 50 µg/mL
- IC50 [12]: < 0.0006 µg/mL
- IC80 [12]: 0.002 µg/mL
- IC50 [13]: < 0.0006 µg/mL
- IC80 [13]: 0.006 µg/mL
- IC50 [14]: > 50 µg/mL
- IC80 [14]: > 50 µg/mL
- IC50 [15]: 29.5 µg/mL
- IC80 [15]: > 50 µg/mL
- IC50 [16]: < 0.0006 µg/mL
- IC80 [16]: 0.004 µg/mL
- IC50 [17]: 1.55 µg/mL
- IC80 [17]: > 50 µg/mL
- IC50 [18]: 0.198 µg/mL
- IC80 [18]: 0.585 µg/mL
- IC50 [19]: 0.153 µg/mL
- IC80 [19]: 1.06 µg/mL
- IC50 [20]: < 0.0006 µg/mL
- IC80 [20]: 0.001 µg/mL
- IC50 [21]: > 50 µg/mL
- IC80 [21]: > 50 µg/mL
- IC50 [22]: 0.248 µg/mL
- IC80 [22]: 1.83 µg/mL
- IC50 [23]: < 0.0006 µg/mL
- IC80 [23]: 0.007 µg/mL
- IC50 [24]: 1.81 µg/mL
- IC80 [24]: > 50 µg/mL
- IC50 [25]: < 0.0006 µg/mL
- IC80 [25]: < 0.0006 µg/mL
- IC50 [26]: > 50 µg/mL
- IC80 [26]: > 50 µg/mL
- IC50 [27]: > 50 µg/mL
- IC80 [27]: > 50 µg/mL
- IC50 [28]: 0.016 µg/mL
- IC80 [28]: 0.114 µg/mL
